Consider 1 substance from paper PMC8784147.

The target of this test is HBV core protein dimer (Cp149 dimer, 34 kDa) (hepatitis B virus). Briefly: multi-cycle resistive-pulse sensing.

“HBV core protein dimer (Cp149 dimer, 34 kDa) (domain or fragment)” had a stoichiometry N of 120 dimers.
